# Reference: patent US20110280881A1, “NOVEL ANTI-HSP90 MONOCLONAL ANTIBODY” (RIKEN, priority 2010, published 2011)
# B1: IL-4: cytokine (protein, UniProt P05112 25-153, looked up)
# Interleukin-4: HKCDITLQEIIKTLNSLTEQKTLCTELTVTDIFAASKNTTEKETFCRAATVLRQFYSHHEKDTRCLGATAQQFHRHKQLIRFLKRLDRNLWGLAGLNSCPVKEANQSTLENFLERLKTIMREKYSKCSS
# B2: IL-23: cytokine (protein, UniProt Q9NPF7 20-189; P29460 23-328, looked up)
# Interleukin-23 subunit alpha: RAVPGGSSPAWTQCQQLSQKLCTLAWSAHPLVGHMDLREEGDEETTNDVPHIQCGDGCDPQGLRDNSQFCLQRIHQGLIFYEKLLGSDIFTGEPSLLPDSPVGQLHASLLGLSQLLQPEGHHWETQQIPSLSPSQPWQRLLLRFKILRSLQAFVAVAARVFAHGAATLSP
# Interleukin-12 subunit beta: IWELKKDVYVVELDWYPDAPGEMVVLTCDTPEEDGITWTLDQSSEVLGSGKTLTIQVKEFGDAGQYTCHKGGEVLSHSLLLLHKKEDGIWSTDILKDQKEPKNKTFLRCEAKNYSGRFTCWWLTTISTDLTFSVKSSRGSSDPQGVTCGAATLSAERVRGDNKEYEYSVECQEDSACPAAEESLPIEVMVDAVHKLKYENYTSSFFIRDIIKPDPPKNLQLKPLKNSRQVEVSWEYPDTWSTPHSYFSLTFCVQVQGKSKREKKDRVFTDKTSATVICRKNASISVRAQDRYYSSSWSEWASVPCS
# B3: IL-10: cytokine (protein, UniProt P22301 19-178, looked up)
# Interleukin-10: SPGQGTQSENSCTHFPGNLPNMLRDLRDAFSRVKTFFQMKDQLDNLLLKESLLEDFKGYLGCQALSEMIQFYLEEVMPQAENQDPDIKAHVNSLGENLKTLRLRLRRCHRFLPCENKSKAVEQVKNAFNKLQEKGIYKAMSEFDIFINYIEAYMTMKIRN
# System: DC2.4 cells and mouse GM-CSF-dependent BMDC
# Test: Influence of cytokines on expression of cell surface HSP90 (FACS with 6H8)
# Assay type: cell-based
# Settings: BMDC, cytokines 100 ng/ml or 10 ng/ml
# Experimental: In view of the possibility that cytokines are variation factors for the expression of cell surface HSP90, the influences of various cytokines on the expression of cell surface HSP90 were examined as described below.
# The solid bars indicate the MFI for BMDC incubated in the presence of high concentrations of IFNs (as in FIG. 5B) or other cytokines (100 ng/ml); the grey bars indicate the MFI for BMDC incubated in the presence of low concentrations of IFNs (as in FIG. 5B) or other cytokines (10 ng/ml). The open bars indicate the MFI for BMDC incubated in the absence of the cytokines as negative controls.
row,Molecule,MFI of cell surface HSP90 after cytokine treatment versus negative control
1,B1,no significant difference from the negative control
2,B2,no significant difference from the negative control
3,B3,no significant difference from the negative control
